Test results as given in paper PMC5642512.
Blank lines part the entries; values can stand above or below the substance they belong to.

Key:
Nur77 [1] = molecular target: Nur77 (UniProt P22736); assay: co-IP of transfected tagged proteins; conditions: reference: wild-type Flag-Bcl-2
Nur77 [2] = molecular target: Nur77 (UniProt P22736); assay: co-IP anti-Flag (Nur77), anti-Myc (Bcl-2) blot; conditions: reference: wild-type Myc-Bcl-2; sites S87

binding against the reference (Nur77 [1]; sites S87): weaker
Substance: Bcl-2 (from UniProt P10415) Flag-Bcl-2/S87A

binding against the reference (Nur77 [1]; sites T56): weaker
Substance: Bcl-2 (from UniProt P10415) Flag-Bcl-2/T56A

binding against the reference (Nur77 [2]): lost
Substance: Bcl-2 (from UniProt P10415) Myc-Bcl-2/S87A
